For seven molecules, binding score results are on record in PMC11098746 (2024).

The experiment deals with Circumsporozoite protein (CSP) (Plasmodium falciparum (isolate 3D7), UniProt Q7K740). Nature of the experiment: AVEXIS screen signal:noise (double-corrected).
Chain of Circumsporozoite protein (CSP) (Q7K740 19-374): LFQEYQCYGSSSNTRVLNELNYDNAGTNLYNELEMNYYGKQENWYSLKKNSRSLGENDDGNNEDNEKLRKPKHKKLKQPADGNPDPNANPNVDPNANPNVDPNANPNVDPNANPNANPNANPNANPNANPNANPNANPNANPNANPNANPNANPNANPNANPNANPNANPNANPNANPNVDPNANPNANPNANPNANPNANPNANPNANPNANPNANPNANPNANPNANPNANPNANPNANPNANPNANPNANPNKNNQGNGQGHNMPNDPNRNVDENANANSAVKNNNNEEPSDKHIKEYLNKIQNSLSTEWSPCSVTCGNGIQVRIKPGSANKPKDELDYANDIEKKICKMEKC

B1: ADP267 (protein)
chain: CKYKKSSGQLWSWMVCLAGLCAVCLLILSPFWGLILFSVSCFLMYTYLSGQELLPVDQKAVLVTGGDCGLGHALCKYLDELGFTVFAGVLNENGPGAEELRRTCSPRLSVLQMDITKPVQIKDAYSKVAAMLQDRGLWAVINNAGVLGFPTDGELLLMTDYKQCMAVNFFGTVEVTKTFLPLLRKSKGRLVNVSSMGGGAPMERLASYGSSKAAVTMFSSVMRLELSKWGIKVASIQPGGFLTNIAGTSDKWEKLEKDILDHLPAEVQEDYGQDYILAQRNFLLLINSLASKDFSPVLRDIQHAILAKSPFAYYTPGKGAYLWICLAHYLPIGIYDYFAKRHFGQDKPMPRALRMPNYKKKAT
modifications: bait human Fc-tagged dimer
As for B1, the binding score was 0.806.

B2: ADP377 (protein)
chain: FSECNKCDEKKERGLPAGDVLEPVQKPHEGPGEMGKPVVIPKEDQEKMKEMFKINQFNLMASEMIALNRSLPDVRLEGCKTKVYPDNLPTTSVVIVFHNEAWSTLLRTVHSVINRSPRHMIEEIVLVDDASERDFLKRPLESYVKKLKVPVHVIRMEQRSGLIRARLKGAAVSKGQVITFLDAHCECTVGWLEPLLARIKHDRRTVVCPIIDVISDDTFEYMAGSDMTYGGFNWKLNFRWYPVPQREMDRRKGDRTLPVRTPTMAGGLFSIDRDYFQEIGTYDAGMDIWGGENLEISFRIWQCGGTLEIVTCSHVGHVFRKATPYTFPGGTGQIINKNNRRLAEVWMDEFKNFFYIISPGVTKVDYGDISSRVGLRHKLQCKPFSWYLENIYPDSQIPRHYFSLGEIRNVETNQCLDNMARKENEKVGIFNCHGMGGNQVFSYTANKEIRTDDLCLDVSKLNGPVTMLKCHHLKGNQLWEYDPVKLTLQHVNSNQCLDKATEEDSQVPSIRDCNGSRSQQWLLRNVTLPEIF
modifications: bait human Fc-tagged dimer
Take B2: the binding score was 0.747.

B3: ADP392 (protein)
chain: GLTRSCDSSGDGGPGTAPAPSHLPSSTASPSGPPAQDQDICPASEDESGQWKNFRLPDFVNPVHYDLHVKPLLEEDTYTGTVSISINLSAPTRYLWLHLRETRITRLPELKRPSGDQVQVRRCFEYKKQEYVVVEAEEELTPSSGDGLYLLTMEFAGWLNGSLVGFYRTTYTENGQVKSIVATDHEPTDARKSFPCFDEPNKKATYTISITHPKEYGALSNMPVAKEESVDDKWTRTTFEKSVPMSTYLVCFAVHQFDSVKRISNSGKPLTIYVQPEQKHTAEYAANITKSVFDYFEEYFAMNYSLPKLDKIAIPDFGTGAMENWGLITYRETNLLYDPKESASSNQQRVATVVAHELVHQWFGNIVTMDWWEDLWLNEGFASFFEFLGVNHAETDWQMRDQMLLEDVLPVQEDDSLMSSHPIIVTVTTPDEITSVFDGISYSKGSSILRMLEDWIKPENFQKGCQMYLEKYQFKNAKTSDFWAALEEASRLPVKEVMDTWTRQMGYPVLNVNGVKNITQKRFLLDPRANPSQPPSDLGYTWNIPVKWTEDNITSSVLFNRSEKEGITLNSSNPSGNAFLKINPDHIGFYRVNYEVATWDSIATALSLNHKTFSSADRASLIDDAFALARAQLLDYKVALNLTKYLKREENFLPWQRVISAVTYIISMFEDDKELYPMIEEYFQGQVKPIADSLGWNDAGDHVTKLLRSSVLGFACKMGDREALNNASSLFEQWLNGTVSLPVNLRLLVYRYGMQNSGNEISWNYTLEQYQKTSLAQEKEKLLYGLASVKNVTLLSRYLDLLKDTNLIKTQDVFTVIRYISYNSYGKNMAWNWIQLNWDYLVNRYTLNNRNLGRIVTIAEPFNTELQLWQMESFFAKYPQAGAGEKPREQVLETVKNNIEWLKQHRNTIREWFFNLLESG
modifications: bait human Fc-tagged dimer
B3 displayed a binding score of 0.793.

B4: ADP268 (protein)
chain: WEYGDLHLFGPNQRPAPCYDPCEAVLVESIPEGLDFPNASTGNPSTSQAWLGLLAGAHSSLDIASFYWTLTNNDTHTQEPSAQQGEEVLRQLQTLAPKGVNVRIAVSKPSGPQPQADLQALLQSGAQVRMVDMQKLTHGVLHTKFWVVDQTHFYLGSANMDWRSLTQVKELGVVMYNCSCLARDLTKIFEAYWFLGQAGSSIPSTWPRFYDTRYNQETPMEICLNGTPALAYLASAPPPLCPSGRTPDLKALLNVVDNARSFIYVAVMNYLPTLEFSHPHRFWPAIDDGLRRATYERGVKVRLLISCWGHSEPSMRAFLLSLAALRDNHTHSDIQVKLFVVPADEAQARIPYARVNHNKYMVTERATYIGTSNWSGNYFTETAGTSLLVTQNGRGGLRSQLEAIFLRDWDSPYSHDLDTSADSVGNACRLL
modifications: bait human Fc-tagged dimer
The molecule B4 came in with a binding score of 0.585.

B5: ADP115 (protein)
chain: MARPGQRWLGKWLVAMVVWALCRLATPLAKNLEPVSWSSLNPKFLSGKGLVIYPKIGDKLDIICPRAEAGRPYEYYKLYLVRPEQAAACSTVLDPNVLVTCNRPEQEIRFTIKFQEFSPNYMGLEFKKHHDYYITSTSNGSLEGLENREGGVCRTRTMKIIMKVGQDPNAVTPEQLTTSRPSKEADNTVKMATQAPGSRGSLGDSDGKHETVNQEEKSGPGASGGSSGDPDGFFNSKVAL
modifications: bait human Fc-tagged dimer
Molecule B5 registered a binding score of 1.09.

B6: ADP276 (protein)
chain: DRGHLDYPRNPRREGSFPQGQLSMLQEKIDHLERLLAENNEIISNIRDSVINLSESVEDGPKSSQSNFSQGAGSHLLPSQLSLSVDTADCLFASQSGSHNSDVQMLDVYSLISFDNPDGGVWKQGFDITYESNEWDTEPLQVFVVPHSHNDPGWLKTFNDYFRDKTQYIFNNMVLKLKEDSRRKFIWSEISYLSKWWDIIDIQKKDAVKSLIENGQLEIVTGGWVMPDEATPHYFALIDQLIEGHQWLENNIGVKPRSGWAIDPFGHSPTMAYLLNRAGLSHMLIQRVHYAVKKHFALHKTLEFFWRQNWDLGSVTDILCHMMPFYSYDIPHTCGPDPKICCQFDFKRLPGGRFGCPWGVPPETIHPGNVQSRARMLLDQYRKKSKLFRTKVLLAPLGDDFRYCEYTEWDLQFKNYQQLFDYMNSQSKFKVKIQFGTLSDFFDALDKADETQRDKGQSMFPVLSGDFFTYADRDDHYWSGYFTSRPFYKRMDRIMESHLRAAEILYYFALRQAHKYKINKFLSSSLYTALTEARRNLGLFQHHDAITGTAKDWVVVDYGTRLFHSLMVLEKIIGNSAFLLILKDKLTYDSYSPDTFLEMDLKQKSQDSLPQKNIIRLSAEPRYLVVYNPLEQDRISLVSVYVSSPTVQVFSASGKPVEVQVSAVWDTANTISETAYEISFRAHIPPLGLKVYKILESASSNSHLADYVLYKNKVEDSGIFTIKNMINTEEGITLENSFVLLRFDQTGLMKQMMTKEDGKHHEVNVQFSWYGTTIKRDKSGAYLFLPDGNAKPYVYTTPPFVRVTHGRIYSEVTCFFDHVTHRVRLYHIQGIEGQSVEVSNIVDIRKVYNREIAMKISSDIKSQNRFYTDLNGYQIQPRMTLSKLPLQANVYPMTTMAYIQDAKHRLTLLSAQSLGVSSLNSGQIEVIMDRRLMQDDNRGLEQGIQDNKITANLFRILLEKRSAVNTEEEKKSVSYPSLLSHITSSLMNHPVIPMANKFSSPTLELQGEFSPLQSSLPCDIHLVNLRTIQSKVGNGHSNEAALILHRKGFDCRFSSKGTGLFCSTTQGKILVQKLLNKFIVESLTPSSLSLMHSPPGTQNISEINLSPMEISTFRIQLR
modifications: bait human Fc-tagged dimer
As to B6, the binding score came to 0.79.

B7: ADP342 (protein)
chain: MATQLPAYVAILLFYVSRASCQDTFTAAVYEHAAILPNATLTPVSREEALALMNRNLDILEGAITSAADQGAHIIVTPEDAIYGWNFNRDSLYPYLEDIPDPEVNWIPCNNRNRFGQTPVQERLSCLAKNNSIYVVANIGDKKPCDTSDPQCPPDGRYQYNTDVVFDSQGKLVARYHKQNLFMGENQFNVPKEPEIVTFNTTFGSFGIFTCFDILFHDPAVTLVKDFHVDTIVFPTAWMNVLPHLSAVEFHSAWAMGMRVNFLASNIHYPSKKMTGSGIYAPNSSRAFHYDMKTEEGKLLLSQLDSHPSHSAVVNWTSYASSIEALSSGNKEFKGTVFFDEFTFVKLTGVAGNYTVCQKDLCCHLSYKMSENIPNEVYALGAFDGLHTVEGRYYLQICTLLKCKTTNLNTCGDSAETASTRFEMFSLSGTFGTQYVFPEVLLSENQLAPGEFQVSTDGRLFSLKPTSGPVLTVTLFGRLYEKDWASNASSGLT
modifications: bait human Fc-tagged dimer
The molecule B7 gave a binding score of 1.71.
